# Legend:
# Test in all cases: SPR
# [1] = target: Human recombinant CD16A-158F (human) (UniProt P08637)
# [2] = target: CD32A-131H (human) (UniProt P12318)
# [3] = target: CD32A-131R (human)
# [4] = target: Human recombinant CD16A-158V (human)
# [5] = target: Human recombinant CD16B (human) (UniProt O75015)
# [6] = target: Human recombinant CD32B (human) (UniProt P31994)
# Sequence of UniProt P31994 (P31994 43-217): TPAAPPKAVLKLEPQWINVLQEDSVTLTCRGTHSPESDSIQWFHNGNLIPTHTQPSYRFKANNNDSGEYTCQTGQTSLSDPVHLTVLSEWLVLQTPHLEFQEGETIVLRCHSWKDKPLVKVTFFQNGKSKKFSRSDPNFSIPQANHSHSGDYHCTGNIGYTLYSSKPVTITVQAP
# Sequence of UniProt P08637 (P08637 17-208): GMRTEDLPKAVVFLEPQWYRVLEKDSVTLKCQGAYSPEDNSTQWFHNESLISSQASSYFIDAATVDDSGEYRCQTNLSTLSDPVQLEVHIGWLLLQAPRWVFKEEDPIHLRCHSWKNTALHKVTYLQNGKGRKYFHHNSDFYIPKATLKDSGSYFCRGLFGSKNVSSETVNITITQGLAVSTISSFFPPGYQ
# Sequence of UniProt O75015 (O75015 17-200): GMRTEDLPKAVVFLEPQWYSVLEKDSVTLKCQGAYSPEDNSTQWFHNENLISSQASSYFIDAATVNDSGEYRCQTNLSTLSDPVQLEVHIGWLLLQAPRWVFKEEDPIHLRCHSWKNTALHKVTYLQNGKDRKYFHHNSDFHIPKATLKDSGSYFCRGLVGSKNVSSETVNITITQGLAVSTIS
# Sequence of UniProt P12318 (P12318 34-317): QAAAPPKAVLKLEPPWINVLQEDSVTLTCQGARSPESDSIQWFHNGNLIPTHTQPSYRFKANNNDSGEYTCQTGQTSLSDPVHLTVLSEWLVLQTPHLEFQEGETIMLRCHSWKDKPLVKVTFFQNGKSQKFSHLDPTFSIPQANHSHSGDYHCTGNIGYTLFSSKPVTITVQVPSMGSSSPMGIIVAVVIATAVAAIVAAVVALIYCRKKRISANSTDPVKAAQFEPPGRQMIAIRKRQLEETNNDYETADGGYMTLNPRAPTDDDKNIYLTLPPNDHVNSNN
affinity relative to hu3F8-IgG1 on CD16A(158F) [1] [fold],Kd [2] [nM],Kd [3] [nM],Kd [1] [nM],Kd [4] [nM],"ka1 (two-state reaction, first step) [4] [M⁻¹ s⁻¹]","kd1 (two-state reaction, first step) [4] [s⁻¹]","kd2 (two-state reaction, second step) [4] [s⁻¹]",Kd [5] [nM],Kd [6] [nM],Substance
16,–,–,–,–,–,–,–,–,–,hu3F8-IgG1-DEL (antibody)
–,541,786,2090,726,134000,0.212,0.00897,2030,2400,hu3F8-IgG1 (antibody)

# Source: publication PMC4948116
